Activity data for 2 sequences are collected here from patent US20130059388.

The subject of data set [1] is MAPRE3 ZFN of pair 31/32 (second) (synthetic). The data set can be described thus: cell_activity. The settings on record: Cel-1 efficiency of ZFN pair 31/32; no productive tag integration.
The test system of data set [2] is MAPRE3 ZFN of pair 31/32 (first) (synthetic). The data set can be described thus: cell_activity. The settings on record: Cel-1 efficiency of ZFN pair 31/32; no productive tag integration.

In turn, “AGGAAGGATTCGCAC (double strand) [MAPRE3 half-site 2]” showed an activity in data set [1] of 21%.

The sequence “TTCCTCTCTCTCCCAC (double strand) [MAPRE3 half-site 1]” yielded an activity in data set [2] of 21%.
